Test: soluble on expression in E. coli; label from the status in PepcDB or PDB records

Soluble on expression in E. coli, not soluble:
MGSDKIHHHHHHMQDLLRWKNSKHRKPLILKGVRQVGKTWLLKEFARRYYNNLAYFNFDEHPEYKQFFENTKDVERILQNLMMASGQIINPKEPGTTLIVFDEIQECPNALNTLKYFCENTPHYHVACAGSLLGIALSKPASFPVGKVDFLEIGPMTFTEFLLANGDGNFVSYLDNLDRIEPIPDAFFNPLYEKLKMYFVTGGMPESVRSWTEERDVELVQQVLANILGAYERDFAKHPDPKDFPKISLIWKSLPSQLARENKKFIYKVVKEGARAREYEEALQWLCDASLAYKIYRSSAPGLPISAYDDLAAFKLYLVDVGLLRRLSLLAPSAFGEGNRLFVEFKGALSENYVLQALRNQLEAMPRYWTMDNPRHEVDFLIQRENEIIPVEVKSETNVESRSLKKFKEKYGDKVKLRVRFSLNNLRLDGDLLNIPLFITDYADKLIGMALTDQPKE
MGSDKIHHHHHHMQDLNDIALFAAVVKHNGFSAAARDLNVPKSKLSKHVARLEEQLGVRLLERSTRKLRMTEVGRIFYEHAQGLLDGVAAAEAEIAAVRAEPTGVVRLACPIGFTPMLADILPAFHRRYPGVRLLITASNRRIDLIEERIDVALRARDQLDTDSQLIVRKFGEVRQRLAASPTLLARLGEITTDNLSQMPTLSMNEQHPNDVWRLVHATGGAIEIAHRPVVGCSDFLILERAAIEGMGIALLPDHICERAFRTGALVPVLPEWTSGNVMVHLVFPSRHGLLPATRALIDFLAENLIKALERCREVDPRPAASFEI
MGSDKIHHHHHHMQEIFAVLPETIRQLLKKLPPSIQKDVEEIRIRVHRPLEVIVNHLPHYPEHQGCEYVVTTKDAQFLLNQLSAYSIYAFEEELKRGFITMAGGHRVGLAGKVTLEKGYVKTVRDISSFNIRVAKQKIGTAEPLISHVYQKGWLNTLLIGPPQSGKTTLLRDLARLVSVGWSRKGIPPLKVGIVDERSEIAAAVKGVPQHELGMRVDVLDGCPKAEGMMMMIRSMSPDVLIVDEIGRKEDCVAIQEALHAGVKVMTTAHGYELEEVSKRPAIRELLEIEAFDRCIELERRAKPGVVRRIRNAKAKDVGYVS
MGSDKIHHHHHHMQFNKPLRQGVLQKRYKRFLADIDFGDNETTTTHCPNTGAMTGCAEPGFTAWCSVSDNPKRKYSLTWELAQNNNGEMIVVNTQHANRMAGELLQTNLVPELSQWQELKPEQRYGKEKSRIDWWGVDQHNRECFIEVKSVTLADASQGYFPDAVSQRAHKHLNELMQVVADGHRAVQLYMVMHDGIERVSPAAHIDSQYAELCRKAASVGVEFYAVKCRASAKEIKLERPVPVSL
MGSDKIHHHHHHMQKKGNKYGTHRVLAPQGVLPQPAEKVDNNMDEIYDNEILIDVKTLNIDSASFTQIHEQAGGDKAKIAEIMLGIVAKQGKHRNPVTGSGGMLLGVVEKIGDALKDKIDLKVGDKIATLVSLSLTPLRIDKIKEIRPDVDQVDIEGKAILFESGIYAKIPNDLPEKLALSALDVAGAPAQTAKLVKPGDTVLIIGAGGKSGMLCCYEAKKRAGVTGKVIGLCHSQKSTDRLKALGFCDHVFSADATKPVPVMEEIEKLTNGEMCDVTINNVNITDTEMTSILCTKNDGIVYFFSMATSFTKAALGAEGVGSDVTMIVGNGYTKGHAEITLQELRECEALRKVFTELYA
MGSDKIHHHHHHMQKLLSVIPSVDKLIKQLAGIALIQQYGHQAFVAQARQVIDSLRQHILTHQSLPVDQPADNLLSLIATNLQQTQQIAMKKVFNLTGTILHTNLGRAIWSEAAITAASDAMRHHSALEFDIEAGKRSHRDNTISQLLCEITGAEAACVVNNNAAAVLLMLATFAKGKEVIVSRGELVEIGGAFRIPDIMQQAGCKLVEVGTTNRTHLKDYRAAINENTALLMKVHTSNYQIQGFTHSVSEQQLVELGQEVGLPVMSDLGSGSLIDMATFGLPAEPLVQQKVASGVALVTFSADKLLGGPQAGIIVGKKADIEALQAHPLKRVLRCDKVILAGLEATLRHYLLPDQLTTHLPTLSLLTQSIDHLRVKATRLQNSLSKRLDARYHLQIEQSLAQIGSGALPTERLASLAVTITAPTQRDLLQLEQQFKMLKYPIIGRFAEQKLWLDLRSVAQFDQLIEMLEEK
MGSDKIHHHHHHMQLSAMFVHPVKSCRGIAFDRAYAGKLGLLHDREWLLVSPDGQQITARAHPKLVTIRVELLPGGALLHHSGKAPIFAMATAYTRPHPAQVWKDGFQAWHGDERVDAWFADILGCDCRLLWLGAQSNRPFKGGPETMSFADGYPFLLASQASLDDLNRQLAAPVTLRHFRPNLVVSGAYPWEEDEWQVIRIGDVEFDVVKPCVRCVLTTVDPELGEKRADGEPLQTLIRTRMLDAGVCFGMNLRARNEGVLELGAPVEVLEQRYSF
MGSDKIHHHHHHMQPLLQLQGITKSFPGVKALSGAALNVYPGKVMALVGENGAGKSTMMKVLTGIYRKDAGSIHFLGQEVDFNGPKASQEAGIGIIHQELNLIPQLTIAENIFLGREFTNRFGRIDWNKMYAEADKLLKRLNLRYDSRRMVGDLSIGDQQMVEIAKVLSFESKVIIMDEPTDALTDTETASLFSVINELQSQGCGIVYISHRLKEIFEICDDITVFRDGQFIGERPVSDLEEDTLIEMMVGRKLEDQYPRSNKAPGEVRLKVQNLSGPGVDSVSFTVRKGEILGVAGLMGAGRTELMKILYGALPRTGGNVTLDGRDVVTRKPQDGLANGIVYISEDRKRDGLVLGMSVKENMSLTALRYFSHAGGRLKHAEEQLTVADFIRLFNVKTPSMEQPIGLLSGGNQQKVAIARGLMTRPNVLILDEPTRGVDVGAKKEIYQLINQFKEEGLSIILVSSEMPEVLGMSDRIIVMHEGRLSGDFPIEQATQEALMAAAVGKQYGAKQE
MGSDKIHHHHHHMQPTYNIDNPNLSYEAKRDLWRIGFGLQKVDNLVPSAYMESLAEKQSRGELTYEQVYEDATAYHHTIDASTEEADLVSLRIVELLSRRGFSFSPAILLAIHKELFQDIFEPSIPVGQFRQTNITKNEPVLNGESVVYSDYSMIQMTLDYDFNQEKQVAYATLTQADMVKKIQHFISGIWQIHPFREGNTRTVTVFLIQYLREFGFDIDNTPFQQHSKYFRDALVLDNAKILQRRPEFLTAFFENLLLGGQNDLSSEKMYLDLDLDLS
MGSDKIHHHHHHMQQAIEQTATGGALRFNGICKVFPGVKALSDISFEARPGSVHALMGENGAGKSTLLKILGGSYQPNSGTLQIGEHSYQFKSTAESIAAGVAVIHQELHLVPEMTVAENLLLGHMPNRFGLINRGAMYRRAGELLKGLADEIDPRTRLGDLSLGQRQLVEIAKAMSRNAHVIAFDEPTSSLSAREIDRLMAIIVRLRDEGRVILYVSHRMEEIFRVCDAVTVFKDGRFVKTFEQMADLDHDRLVTCMVGRDIQDIYNYRPRQHQGPSLRVTGLLGLGLQEPVSFAVQKGEVLGFFGLVGAGRTELFRILSGLTRSTAGSLQLDGQPLTLKSPRDAIAAGVLLCPEDRKKEGIVPLSSVAENINIGARPRHVNLGCLIQGGWERDNARAQIKSMNVKTPSPEQQIMFLSGGNQQKAILGRWLSMPMKVLLLDEPTRGIDVGAKSEIYEIIHTLAADGIAVIVVSSDLMEVMGISDRILVMSEGAITGELNRDEADESRLLQLALPRTRG
MGSDKIHHHHHHMQQEIIDFRQSQSLAGAELSRASYQRFDFGRHVHEDLHLGAVIRGAQAFNHKGTGHTLCRGDLSTLSPDECHDGIAATDTGYEVLVLSLPQWHLDRFAAELGISFGGFCQPKRKDMALYQAFVSLHRLLYQAENPLLEETALLDFFQRLLGQCSKSEKVTNTGTVKAGLSREIRLAKSLMADTPEPVTLELLGDATGLGRYRLLRHFRAQTGLSPHQWQLRLRLERAKKSLMQNDGNSLTDIAHQHGFSDLSHFTRHFRMAFLTSPSAYRRAIRN

Source: the DeepSol protein solubility set
